From the supplement of paper PMC7125110
± gives the standard error. Variants at the floor of the assay were thinned out.

B1: glmS ribozyme (parent)
chain: AUAAAAGCGCCAGAACUACAGAAAUGUAGUUGACGAGGAGGAGGUUUAUCGAAUUUUCGGCGGAUGCCUCCAAA

Legend:
Settings in all cases: with glucosamine-6-phosphate
[1] = variants of: B1; test: self-cleavage kobs at 40 uM GlcN6P; higher = faster cleavage; RNA array
In short: (§1)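 Ribozyme variants carrying barcodes were transcribed in situ on sequenced MiSeq chips by E. coli RNA polymerase and tracked at 37 °C with a hybridised Cy3 probe. They were exposed to 40 μM to 10 mM glucosamine-6-phosphate in HEPES/KCl/Mg(OAc)2 buffer. kobs came from exponential decay fits of normalised per-tile medians, and kcat and KM from weighted Michaelis–Menten fits.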

[2] = variants of: B1; test: self-cleavage kobs at 160 uM GlcN6P; higher = faster cleavage; RNA array
In short: as §1

[3] = variants of: B1; test: self-cleavage kobs at 640 uM GlcN6P; higher = faster cleavage; RNA array
In short: as §1

[4] = variants of: B1; test: self-cleavage kobs at 10000 uM GlcN6P; higher = faster cleavage; RNA array
In short: as §1

[5] = variants of: B1; test: self-cleavage kobs at 2500 uM GlcN6P; higher = faster cleavage; RNA array
In short: as §1

| Variant | self-cleavage kobs at 40 uM GlcN6P [1] | self-cleavage kobs at 160 uM GlcN6P [2] | self-cleavage kobs at 640 uM GlcN6P [3] | self-cleavage kobs at 10000 uM GlcN6P [4] | self-cleavage kobs at 2500 uM GlcN6P [5] |
| --- | --- | --- | --- | --- | --- |
| G13A U47A G60U | < 1e-05 s⁻¹ | < 1e-05 s⁻¹ | < 1e-05 s⁻¹ | < 1e-05 s⁻¹ |  |
| A12C G40A | 0.000112 ± 2.1e-05 s⁻¹ | 0.000305 ± 8e-05 s⁻¹ | 0.000633 ± 0.00023 s⁻¹ | 0.00569 ± 0.0013 s⁻¹ | 0.00149 ± 0.00055 s⁻¹ |
| A12G C61G | < 1e-05 s⁻¹ |  |  | < 1e-05 s⁻¹ |  |
| G13A C34G C50U C67G | 0.000108 ± 3.3e-05 s⁻¹ |  | 0.00142 ± 0.00036 s⁻¹ | 8.5e-05 ± 2.6e-05 s⁻¹ |  |
| G13U G41C U46G C50G | < 1e-05 s⁻¹ |  |  |  |  |
| G13C A33U A39G U47C C61U | < 1e-05 s⁻¹ |  |  |  |  |
| C11G G38U | < 1e-05 s⁻¹ | < 1e-05 s⁻¹ | < 1e-05 s⁻¹ | < 1e-05 s⁻¹ |  |
| A12U G29A U56C | 0.000118 ± 2.9e-05 s⁻¹ |  | 0.000685 ± 0.00022 s⁻¹ |  | 0.0018 ± 0.00058 s⁻¹ |
| A14C C61G | < 1e-05 s⁻¹ |  |  | < 1e-05 s⁻¹ |  |
| C11G U56G A64U | < 1e-05 s⁻¹ | < 1e-05 s⁻¹ |  |  | < 1e-05 s⁻¹ |
| A14C G60C | < 1e-05 s⁻¹ | < 1e-05 s⁻¹ |  | < 1e-05 s⁻¹ | < 1e-05 s⁻¹ |
| C11U A48G A53G | < 1e-05 s⁻¹ |  |  | < 1e-05 s⁻¹ |  |
| A12U A39U | 0.00122 ± 0.00014 s⁻¹ | 0.0029 ± 0.00074 s⁻¹ | 0.0129 ± 0.0047 s⁻¹ | 0.0541 ± 0.013 s⁻¹ | 0.00925 ± 0.0022 s⁻¹ |
| A12G C58U C61U | < 1e-05 s⁻¹ |  |  |  |  |
| G13C A48G G66U C71G | < 1e-05 s⁻¹ |  |  | < 1e-05 s⁻¹ |  |
| C11G G37C G40U G51A U65C | < 1e-05 s⁻¹ |  |  | < 1e-05 s⁻¹ |  |
| A12U A52G | 8.7e-05 ± 1.3e-05 s⁻¹ | 0.000171 ± 6.4e-05 s⁻¹ | 0.000717 ± 0.00014 s⁻¹ | 0.00785 ± 0.0012 s⁻¹ | 0.00267 ± 0.00049 s⁻¹ |
| A12C G38C A42U | < 1e-05 s⁻¹ |  |  | < 1e-05 s⁻¹ |  |
| A12U G29C | 0.00079 ± 0.00011 s⁻¹ | 0.000653 ± 0.00013 s⁻¹ | 0.00446 ± 0.00073 s⁻¹ | 0.0212 ± 0.0041 s⁻¹ | 0.00717 ± 0.0026 s⁻¹ |
| A12U G29A | 0.00084 ± 0.00025 s⁻¹ | 0.000905 ± 0.0002 s⁻¹ | 0.00253 ± 0.00054 s⁻¹ | 0.041 ± 0.012 s⁻¹ | 0.00409 ± 0.0011 s⁻¹ |
| G13A C16U G37U C67U | < 1e-05 s⁻¹ |  |  |  |  |
| A12G G35C G60A U65G C68G | 0.000127 ± 3.9e-05 s⁻¹ |  |  | 0.000121 ± 4.1e-05 s⁻¹ | 0.000384 ± 0.00015 s⁻¹ |

| Variant | self-cleavage kobs at 40 uM GlcN6P [1] | self-cleavage kobs at 160 uM GlcN6P [2] | self-cleavage kobs at 640 uM GlcN6P [3] | self-cleavage kobs at 10000 uM GlcN6P [4] | self-cleavage kobs at 2500 uM GlcN6P [5] |
| --- | --- | --- | --- | --- | --- |
| G13C U47C | < 1e-05 s⁻¹ | < 1e-05 s⁻¹ |  |  |  |
| C11U C58G C67U U69G | 3.48e-05 ± 1.2e-05 s⁻¹ |  |  | 6.72e-05 ± 1.3e-05 s⁻¹ |  |
| G13A C34A A36U C68G | 8.42e-05 ± 3e-05 s⁻¹ |  |  | 6.2e-05 ± 2.4e-05 s⁻¹ |  |
| A12C C58U G63U | < 1e-05 s⁻¹ |  |  | < 1e-05 s⁻¹ |  |
| G13A C16A A52U | < 1e-05 s⁻¹ |  |  | < 1e-05 s⁻¹ | < 1e-05 s⁻¹ |
| C11U A36G | < 1e-05 s⁻¹ | < 1e-05 s⁻¹ | < 1e-05 s⁻¹ |  | < 1e-05 s⁻¹ |
| A12U U54C | 0.00204 ± 0.00025 s⁻¹ | 0.00477 ± 0.00085 s⁻¹ | 0.0165 ± 0.0024 s⁻¹ | 0.0931 ± 0.024 s⁻¹ | 0.0157 ± 0.0029 s⁻¹ |
| C11G G43C A64U | < 1e-05 s⁻¹ |  |  | < 1e-05 s⁻¹ |  |
| G13C G60A | < 1e-05 s⁻¹ | < 1e-05 s⁻¹ | < 1e-05 s⁻¹ | < 1e-05 s⁻¹ | < 1e-05 s⁻¹ |
| G13C A48U C70G | < 1e-05 s⁻¹ |  |  | < 1e-05 s⁻¹ |  |
| A12U G32C G41U C61A | < 1e-05 s⁻¹ |  |  |  |  |
| G13C G35A | < 1e-05 s⁻¹ | < 1e-05 s⁻¹ | < 1e-05 s⁻¹ | < 1e-05 s⁻¹ | < 1e-05 s⁻¹ |
| A12G G29U G44A G63A | < 1e-05 s⁻¹ |  |  | < 1e-05 s⁻¹ |  |
| A12U A14U G32U | < 1e-05 s⁻¹ |  |  | 8.48e-05 ± 2e-05 s⁻¹ |  |
| A12U C70G | 0.000124 ± 1.2e-05 s⁻¹ | 0.000175 ± 2.3e-05 s⁻¹ | 0.000558 ± 0.00013 s⁻¹ | 0.001 ± 0.00029 s⁻¹ |  |
| G13C G43U | < 1e-05 s⁻¹ |  | < 1e-05 s⁻¹ | < 1e-05 s⁻¹ | < 1e-05 s⁻¹ |
| A14C G62C G63A C68G | < 1e-05 s⁻¹ |  |  |  |  |
| C11U A52U G60C | < 1e-05 s⁻¹ |  | < 1e-05 s⁻¹ | < 1e-05 s⁻¹ |  |
| A12G A33G C34U A48C C71G | < 1e-05 s⁻¹ |  |  |  |  |
| A12G U47A G60A | < 1e-05 s⁻¹ | < 1e-05 s⁻¹ | < 1e-05 s⁻¹ |  |  |
| A12C A36C U54G | < 1e-05 s⁻¹ |  |  |  |  |
| C11U C34U | < 1e-05 s⁻¹ |  | < 1e-05 s⁻¹ | < 1e-05 s⁻¹ |  |
